Test results taken from patent US20260022186A1.

T1: murine NT5E expressed on 4T1 cells (murine) (UniProt Q61503)
T1 sequence (looked up): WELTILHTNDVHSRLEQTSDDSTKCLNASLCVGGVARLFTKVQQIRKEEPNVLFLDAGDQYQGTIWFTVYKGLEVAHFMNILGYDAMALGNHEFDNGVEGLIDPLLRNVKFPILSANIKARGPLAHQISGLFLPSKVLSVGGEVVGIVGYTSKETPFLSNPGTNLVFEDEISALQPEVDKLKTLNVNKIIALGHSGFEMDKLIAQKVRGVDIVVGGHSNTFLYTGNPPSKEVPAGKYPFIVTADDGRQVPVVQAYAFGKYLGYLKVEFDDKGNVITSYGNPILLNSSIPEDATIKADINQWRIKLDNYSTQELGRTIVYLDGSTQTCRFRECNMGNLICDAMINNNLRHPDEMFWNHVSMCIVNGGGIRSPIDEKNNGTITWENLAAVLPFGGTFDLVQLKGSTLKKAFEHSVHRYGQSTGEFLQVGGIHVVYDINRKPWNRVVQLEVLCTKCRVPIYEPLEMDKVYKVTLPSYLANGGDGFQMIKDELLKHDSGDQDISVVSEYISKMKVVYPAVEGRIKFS

T2: human NT5E expressed on MDA-MB-231 cells (human) (UniProt P21589)
T2 sequence (looked up): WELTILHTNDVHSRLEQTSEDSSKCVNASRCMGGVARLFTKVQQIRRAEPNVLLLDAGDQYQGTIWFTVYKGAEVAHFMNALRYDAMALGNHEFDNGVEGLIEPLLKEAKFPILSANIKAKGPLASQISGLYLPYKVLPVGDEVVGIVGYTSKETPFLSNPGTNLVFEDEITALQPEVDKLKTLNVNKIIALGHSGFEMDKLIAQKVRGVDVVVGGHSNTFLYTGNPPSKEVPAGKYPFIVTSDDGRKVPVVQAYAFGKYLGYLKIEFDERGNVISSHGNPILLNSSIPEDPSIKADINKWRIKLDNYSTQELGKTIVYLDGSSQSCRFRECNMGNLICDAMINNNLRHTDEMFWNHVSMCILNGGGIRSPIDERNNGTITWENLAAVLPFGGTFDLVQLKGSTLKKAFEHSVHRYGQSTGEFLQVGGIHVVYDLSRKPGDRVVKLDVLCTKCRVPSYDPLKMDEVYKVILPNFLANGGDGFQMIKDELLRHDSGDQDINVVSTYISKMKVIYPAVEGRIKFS


Legend:
[1] = target: T1, murine NT5E expressed on 4T1 cells (murine); test: cell-based or functional assay
[2] = target: T2, human NT5E expressed on MDA-MB-231 cells (human); test: cell-based or functional assay

| IC50 of inhibition of NT5E activity on 4T1 cells, ATP [1] [nM] | IC50 of inhibition of NT5E activity on MDA-MB-231 cells, ATP [2] [nM] | IC50 of inhibition of NT5E activity on MDA-MB-231 cells, no ATP [2] [nM] | Binder |
| --- | --- | --- | --- |
| 12.7 | 2.5 | 6.9 | 1789 AM39 IgG (antibody, V domains shown) VH: EVQLVESGGGLVQPGGSLRLSCAASGFNVSYSSIHWVRQAPGKGLEWVASIRGAGSDTRYADSVKGRFTISADTSKNTAYLQMNSLRAEDTAVYYCARNYWGWYPFYYFAFDYWGQGTLVTVSS VL: DIQMTQSPSSLSASVGDRVTITCRASQSVSSAVAWYQQKPGKAPKLLIYSASSLYSGVPSRFSGSRSGTDFTLTISSLQPEDFATYYCQQGWDYPITFGQGTKVEIKR |
| 9.1 | 2.3 | 5.6 | 1789 AM32 IgG (antibody, V domains shown) VH: EVQLVESGGGLVQPGGSLRLSCAASGFNVSYSSIHWVRQAPGKGLEWVARIRGNEGDTYYADSVKGRFTISADTSKNTAYLQMNSLRAEDTAVYYCARNYWGWYPFYYFAFDYWGQGTLVTVSS VL: DIQMTQSPSSLSASVGDRVTITCRASQSVSSAVAWYQQKPGKAPKLLIYSASSLYSGVPSRFSGSRSGTDFTLTISSLQPEDFATYYCQQGWDYPITFGQGTKVEIKR |
| 8.8 | 1.9 | 5.4 | 1789 AM42 IgG (antibody, V domains shown) VH: EVQLVESGGGLVQPGGSLRLSCAASGFNVSYSSIHWVRQAPGKGLEWVAKIRGGHQDTHYADSVKGRFTISADTSKNTAYLQMNSLRAEDTAVYYCARNYWGWYPFYYFAFDYWGQGTLVTVSS VL: DIQMTQSPSSLSASVGDRVTITCRASQSVSSAVAWYQQKPGKAPKLLIYSASSLYSGVPSRFSGSRSGTDFTLTISSLQPEDFATYYCQQGWDYPITFGQGTKVEIKR |
